Tests used:
[1] = tested on: O=c1ccn([C@@H]2O[C@H](CO[P@@](=O)(O)O[P@@](=O)(O)O[C@H]3O[C@H](CO)[C@@H](O)[C@H](O)[C@H]3O)[C@@H](O)[C@H]2O)c(=O)[nH]1; assay: HPLC, Hanes-Woolf; assay type: biochemical, Diaporthe amygdali; conditions: 0.1 mM 9 (FC H aglycon), 50 mM MES pH 6.0, 30°C
[2] = tested on: CC(=O)SCCNC(=O)CCNC(=O)[C@H](O)C(C)(C)COP(=O)(O)OP(=O)(O)OC[C@H]1O[C@@H](n2cnc3c(N)ncnc32)[C@H](O)[C@@H]1OP(=O)(O)O; assay: HPLC, Hanes-Woolf; assay type: biochemical, Diaporthe amygdali; conditions: 203 µM 14 (dideacetyl-FC A), 50 mM Tris-HCl pH 8.5, 35°C

Work on “glycosyltransferase (Orf6) (Diaporthe amygdali)” yielded a Km [1] of 520 ± 46 µM and a kcat [1] of 0.40±0.044 S^−1.

With “acetyltransferase-2 (Orf12) (Diaporthe amygdali)” the Km [2] was 63 ± 6.6 µM and the kcat [2] was 3.5×10^−3±0.17×10^−3 S^−1.
